Assay results: ChEMBL document CHEMBL4196070, “Development of Piperazinediones as dual inhibitor for treatment of Alzheimer's disease” (Eur J Med Chem, 2018)

Tests used:
[1] = compound: O=C1C(c2ccccc2)N(S(=O)(=O)c2ccc(Cl)cc2)C(=O)C(c2ccccc2)N1S(=O)(=O)c1ccc(Cl)cc1; experiment: (§1) Competitive inhibition of human MMP2 assessed as Vmax for substrate at 100 nM preincubated for 60 mins followed by Mca-Pro-Leu-Gly-Leu-Dpa-Ala-Arg-NH substrate addition by Lineweaver-Burk plot analysis (reference value: 3.4 to 3.6 nM/min)
[2] = compound: O=C1C(Cc2ccccc2)N(S(=O)(=O)c2ccc(Cl)cc2)C(=O)C(Cc2ccccc2)N1S(=O)(=O)c1ccc(Cl)cc1; experiment: as §1
[3] = compound: O=C1C(c2ccccc2)N(S(=O)(=O)c2ccc(Cl)cc2)C(=O)C(c2ccccc2)N1S(=O)(=O)c1ccc(Cl)cc1; experiment: (§2) Competitive inhibition of human MMP2 assessed as Km for substrate at 100 nM preincubated for 60 mins followed by Mca-Pro-Leu-Gly-Leu-Dpa-Ala-Arg-NH substrate addition by Lineweaver-Burk plot analysis (reference value: 10 to 25 nM)
[4] = compound: O=C1C(Cc2ccccc2)N(S(=O)(=O)c2ccc(Cl)cc2)C(=O)C(Cc2ccccc2)N1S(=O)(=O)c1ccc(Cl)cc1; experiment: as §2
[5] = compound: O=C1C(c2ccccc2)N(S(=O)(=O)c2ccc(Cl)cc2)C(=O)C(c2ccccc2)N1S(=O)(=O)c1ccc(Cl)cc1; experiment: (§3) Competitive inhibition of human MMP2 assessed as Km for substrate at 60 nM preincubated for 60 mins followed by Mca-Pro-Leu-Gly-Leu-Dpa-Ala-Arg-NH substrate addition by Lineweaver-Burk plot analysis (reference value: 10 to 25 nM)
[6] = compound: O=C1C(Cc2ccccc2)N(S(=O)(=O)c2ccc(Cl)cc2)C(=O)C(Cc2ccccc2)N1S(=O)(=O)c1ccc(Cl)cc1; experiment: as §3
[7] = compound: O=C1C(c2ccccc2)N(S(=O)(=O)c2ccc(Cl)cc2)C(=O)C(c2ccccc2)N1S(=O)(=O)c1ccc(Cl)cc1; experiment: (§4) Competitive inhibition of human MMP2 assessed as Vmax for substrate at 60 nM preincubated for 60 mins followed by Mca-Pro-Leu-Gly-Leu-Dpa-Ala-Arg-NH substrate addition by Lineweaver-Burk plot analysis (reference value: 3.4 to 3.6 nM/min)
[8] = compound: O=C1C(Cc2ccccc2)N(S(=O)(=O)c2ccc(Cl)cc2)C(=O)C(Cc2ccccc2)N1S(=O)(=O)c1ccc(Cl)cc1; experiment: as §4

B1: 72 kDa type IV collagenase (Homo sapiens), P08253 (protein)
chain: MEALMARGALTGPLRALCLLGCLLSHAAAAPSPIIKFPGDVAPKTDKELAVQYLNTFYGCPKESCNLFVLKDTLKKMQKFFGLPQTGDLDQNTIETMRKPRCGNPDVANYNFFPRKPKWDKNQITYRIIGYTPDLDPETVDDAFARAFQVWSDVTPLRFSRIHDGEADIMINFGRWEHGDGYPFDGKDGLLAHAFAPGTGVGGDSHFDDDELWTLGEGQVVRVKYGNADGEYCKFPFLFNGKEYNSCTDTGRSDGFLWCSTTYNFEKDGKYGFCPHEALFTMGGNAEGQPCKFPFRFQGTSYDSCTTEGRTDGYRWCGTTEDYDRDKKYGFCPETAMSTVGGNSEGAPCVFPFTFLGNKYESCTSAGRSDGKMWCATTANYDDDRKWGFCPDQGYSLFLVAAHEFGHAMGLEHSQDPGALMAPIYTYTKNFRLSQDDIKGIQELYGASPDIDLGTGPTPTLGPVTPEICKQDIVFDGIAQIRGEIFFFKDRFIWRTVTPRDKPMGPLLVATFWPELPEKIDAVYEAPQEEKAVFFAGNEYWIYSASTLERGYPKPLTSLGLPPDVQRVDAAFNWSKNKKTYIFAGDKFWRYNEVKKKMDPGFPKLIADAWNAIPDNLDAVVDLQGGGHSYFFKGAYYLKLENQSLKSVKFGSIKSDWLGC
[1]
  Vmax: 3.4 nM/min
[2]
  Vmax: 3.6 nM/min
[3]
  Km: 0.07 µM
[4]
  Km: 0.048 µM
[5]
  Km: 0.036 µM
[6]
  Km: 0.024 µM
[7]
  Vmax: 3.4 nM/min
[8]
  Vmax: 3.6 nM/min
